assay: yeast display, Sf9 membrane polyspecificity reagent, FACS + sequencing; frameworks hold sequencing errors
Summary of the method: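 Genes from sorted yeast were amplified by colony PCR, read by MiSeq 2 × 250 sequencing and filtered on CDR length. These cells carried a synthetic nanobody library in Saccharomyces cerevisiae BJ5465 and were sorted by FACS into low and high (top ~1%) gates on anti-HA and streptavidin fluorescence. Polyreactivity is labelled according to the gate of origin.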

Sequence	polyreactivity (PSR sort gate)
QVQLVESGGGLVQAGGSLRLSCAASGRTFRDNPMGWYRHAPGKERELVAAISGRGSSTYYADSVKGRFTIARDNAKKTVYLQMNSLKPEDTAVYYCAALPASVRRPGWHDYWGQGTQVTVSS	high polyreactivity
QVQLVESGGGLVQAGGSLRLSCAASGRTFRDYAMGWYRQAPGKERELVAAINWSGGTTSYADSVKGRFTISRDNAKNTVYLQMNSLKPEDTAVYYCAVPYLYKYSRYDYWGQGTQVTVSS	high polyreactivity
QVQLVESGGGLVQAGGSLRLSCAASGRTFRDYVMGWYRQAPGKERELVAVISYRGSTYYADSVKGRFTISRDNAKNTVYLLMNSLKPEDTAVYYCAARFSLEGGYYWGQGTQVTVSS	low polyreactivity
QVQLVESGGGLVQAGGSLRLSCAASGRTFRFYAMGWNRQAPGKERELVAAINWTGGSTYYADSVKGRFTISRDNAKNTVYLQMNSLKPEDTAVYYCAKVQDYRFEYWGQGTQVTVSS	high polyreactivity
QVQLVESGGGLVQAGGSLRLSCAASGRTFRFYAMGWYRQAPGKERELVATIRSGASTYYADSVKGRFTISRDNAKNTVYLQMNSLKPEDTAVYYCAAGLYFPYVSVIVFRSYDYWGQGTQVTVSS	high polyreactivity
QVQLVESGGGLVQAGGSLRLSCAASGRTFRFYTMGWYRQAPGKERELVADISWTSGRTYYADSVKGRFTISRDNAKNTVYLQMNSLKPEDTAVYYCAAYFFSRYSLYDYWGQGTQVTVSS	high polyreactivity
QVQLVESGGGLVQAGGSLRLSCAASGRTFRFYVMGWYRQAPGKERELVAVIRYRGGSTYYADSVKGRFTISRDNAKNTVYLHMNSLTPEDTAVYYCNADFLLAGNEYDYWGQGTQVTVSS	high polyreactivity
QVQLVESGGGLVQAGGSLRLSCAASGRTFRGNAMGWYRQAPGKERELVAAISRSGGTTYYADSVKGRFTISRDNAKNTVYLQMNSLKPEDTAVYYCNRGWATWHGPDDYWGQGTQVTVSS	high polyreactivity
QVQLVESGGGLVQAGGSLRLSCAASGRTFRGYALGWYRQAPGKERELVAAISGGTTNYADSVKGRFTISRDNAKNTVYLQMNSLKPVDTAVYYCAAAQRQYWRYRLGYEYGSWGQGTQVTVSS	low polyreactivity
QVQLVESGGGLVQAGGSLRLSCAASGRTFRGYAMGWYRQAPGKERELVAAITSGGSTNYADSVKGRFTISRDNAKNTVYLQMNSLKPEDTAVYYCNRDTSKYGLWRYIYDYWGQGTQVTVSS	low polyreactivity
QVQLVESGGGLVQAGGSLRLSCAASGRTFRHNAMGWYRQAPGKERELVATINRGGNTYYADSVKGRFTISRDNAKNTVYLQMNSLKPEDTAVYYCAARRSFLFDEGNYWGQGTQVTVSS	low polyreactivity
QVQLVESGGGLVQAGGSLRLSCAASGRTFRIYATGWYRQAPGKERELVAAITRGGSTYYADSVKGRFTISRDNAKNTVYLQMNSLKPEDTAVYYCNAAPYYWGYDYWGQGTQVTVSS	high polyreactivity
QVQLVESGGGLVQAGGSLRLSCAASGRTFRKNVMGWYRQAPGKEREFVASISSSGSSTYYADSVKGRFTISRDYAKNTVYLQMNSLKPEDTAVYYCAARSVYATKRKYDYWGQGTQVTVSS	high polyreactivity
QVQLVESGGGLVQAGGSLRLSCAASGRTFRKYAMGWYRPAPGKERELVAAISWSGGSTRYADYVKGRFTISRDNEKNTVYLQMNSLKPEDTAVYYCNAVRRYRSTHPSYHTFNYWGQGTQVTVSS	high polyreactivity
QVQLVESGGGLVQAGGSLRLSCAASGRTFRLNAMGWYRQAPGKERELVAGIRVRAGTTYYADSVKGRFTLSRDNAKNTVYLQMNSLKPEDTAVYYCAAESYSRSRKYDYWGQGTQVTVSS	high polyreactivity
QVQLVESGGGLVQAGGSLRLSCAASGRTFRLYAMGWSRQAPGKERELVAAITRGGRTNYADSVKGRFTISRDNAKTTVYLQMTSLKPEDTAVYYCAARYVERHTDYYYWGQGTQVTVSS	low polyreactivity
QVQLVESGGGLVQAGGSLRLSCAASGRTFRLYAMGWYRQAPGKERELVAAISGSGGSTYYADSVKGRFTISRDNAKNTVYLQMNSLKPEDTAVYYCATAVHTAILNYWGQGTQVTVSS	low polyreactivity
QVQLVESGGGLVQAGGSLRLSCAASGRTFRNYAMGWYRPAPGKERELDAGITDSGGSTFYADSVKGRFTISRDNAKNTVYLQMNSLKPADTAVYYCAAVYVPYYWLGRSRGLDYWGQGTQVTVSS	high polyreactivity
QVQLVESGGGLVQAGGSLRLSCAASGRTFRNYAMGWYRQAPGKERELVAAINSGGSTNYADSVKGRFTISRDNAKNTVYLQMNSLKPEDTAVYYCAKRRTYPGKGRFNYWGQGTQVTVSS	low polyreactivity
QVQLVESGGGLVQAGGSLRLSCAASGRTFRPNAMRWYRQAPGKERELVASITRRGGTTYYADSVKGRFTISRDNAKNTVYLQMNSLKPEDTAVYYCNAPPGYSSTRNGYWGQGTQVTVSS	high polyreactivity
QVQLVESGGGLVQAGGSLRLSCAASGRTFRPYAMGWYRQAPGKERELVAAIRGSTGSTYADSVKGRFTISRDNAKNTVYLQMNSLKPEDTAVYSCATYRYYSGLGGGYWGQGTQVTVSS	high polyreactivity
QVQLVESGGGLVQAGGSLRLSCAASGRTFRPYAMGWYRQAPGKERELVAAISYRGGITNYADSVKGRFTISRDNAKNTVYLQMNSLKPEDTAVYYCNRYAIWVSRYSDLDYWGQGTQVTVSS	low polyreactivity

Sequence	polyreactivity (PSR sort gate)
QVQLVESGGGLVQAGGSLRLSCAASGRTFRQYAMGWYRQAPGKERELVAAIRTNGGRTYYADSVKGRFTISRDNAKNTVYLQMNSLKPEDTAVYYCAVYAVVQGVLFDYWGQGTQVTVSS	high polyreactivity
QVQLVESGGGLVQAGGSLRLSCAASGRTFRQYAMGWYRQAPGKERELVARIRWRGGTTYYADSVKGRFTISRDNAKNTVYLQMISLKPEDTAVYYCAADKYGTEYDYWGQGTQVTVSS	high polyreactivity
QVQLVESGGGLVQAGGSLRLSCAASGRTFRRYAIGWYRQAPGKERELVATISSGGSTNYADSVKGRFTISRDNAKNTVYLQMNSLKPEDTAVYYCATPQTRTYDYWGQGTQGTVSS	high polyreactivity
QVQLVESGGGLVQAGGSLRLSCAASGRTFRRYAMGWYRQAPGKERELVAAISRGANTNYADSVKGRFTISRDNAKNTVYLQMNSLKPEDTAVYYCNAKQAGYYFAFGYWGQGTQVTVSS	high polyreactivity
QVQLVESGGGLVQAGGSLRLSCAASGRTFRRYAMGWYRQAPGKERELVAAITRGTRTNYADSVKGRFTISRDNAKNTVYLQMNSLKPEDTAVYYCNARRFLYSGGAYQFYYWGQGTQVTVSS	low polyreactivity
QVQLVESGGGLVQAGGSLRLSCAASGRTFRRYAMGWYRQAPGKERELVAAITSGGSTNYADSVKGRFTISRDNAKNNVYLQMNSLKPEDTAVYYCNARYFRGYDYWGQGTQVTVSS	high polyreactivity
QVQLVESGGGLVQAGGSLRLSCAASGRTFRRYAMGWYRQAPGKERELVAASSRGANTNYADSVKGRFTISRDNAKNTVYLQMNSLKPEDTSVYYGNAYGIDTGDYWGQGTKVTVSS	high polyreactivity
QVQLVESGGGLVQAGGSLRLSCAASGRTFRRYTMGWYRQAPGKERELVATISWSGGTTYADSVKGRFTISRDNAKNTVYLQMNSLKPEDTAVYFCAAVSYVYRYYWGQGTQVTVSS	low polyreactivity
QVQLVESGGGLVQAGGSLRLSCAASGRTFRRYVMGWDRQSPGKERQLVAAIRWTGGSTYYADSVKGRFTISRDNAKNTVYLKMNSLKPEDTEVYYCAAYIRWSGGFDYWGQGTQVTVSS	high polyreactivity
QVQLVESGGGLVQAGGSLRLSCAASGRTFRSNAMGGTTQAPGKERQLVAGITKSGGNTYYADSVKGRFTISRDNAKNTVYLQMTSLKPEDTAVYYCATRYYPLVNYLGYDYWGQGTQVTVSW	low polyreactivity
QVQLVESGGGLVQAGGSLRLSCAASGRTFRSNAMGWNIQAPGKERELVAAITRGRRTYYADSVKGRFTISRDNAKNTVYLQMNSMKPEDTAVYYCAGVGRYACRLDYWGQGTQVTVSS	high polyreactivity
QVQLVESGGGLVQAGGSLRLSCAASGRTFRSNAMGWYRQAPGKERELVAAIRNSDGSTNYADSVKGRFTISRDNAKNNVYLQMNSLKPEDTAVYYCAASSTVGGITRILYYYWGQGTQVTVSS	high polyreactivity
QVQLVESGGGLVQAGGSLRLSCAASGRTFRSNAMGWYRQAPGKERELVATISRRGVSTYYADSVKGRFTISRDNAKNTVYLQMNSLKPEDTAVYYCTLNVGTTSRWSYDYWGQGTQVTVSS	high polyreactivity
QVQLVESGGGLVQAGGSLRLSCAASGRTFRSYAMGWYRQAPGKERELVAAIRGGGGRTHYADSVKGRFTISRDNAKNTVYLQMNSLKPEDTAVYYCAAGRPYLESKLYDYWGQGTHVTVSS	high polyreactivity
QVQLVESGGGLVQAGGSLRLSCAASGRTFRSYAMGWYRQAPGKERELVAAISQRGGSTYYADSVKGRFTISRDNAKNTVYLQMNSLKPEDTAVYYCATPVRSGYDYWGQGTQVTVSS	high polyreactivity
QVQLVESGGGLVQAGGSLRLSCAASGRTFRSYAMGWYRQAPGKERELVAAISSGTSTDYADSVKGRFTISRDNAKNTVYLQMNSLKPEDTAVYYCAYDYWGQGTQVTVSS	low polyreactivity
QVQLVESGGGLVQAGGSLRLSCAASGRTFRSYAMGWYRQAPGKERELVAVISGGGTYYADSVKGRFTISRDNAKNTVYLQMNSLKPEDTAVYYCAAQFHFRPFSWTYDYWGQGTQVTVSS	high polyreactivity
QVQLVESGGGLVQAGGSLRLSCAASGRTFRSYDMGWYRQAPGKERELVAAISEDGGYTYYADSVKGRFTISRDNAKITVYLQMNSLKPEDTAVYYCAKDRPGPLRWWFLYGYWGQGTQGTVSS	low polyreactivity
QVQLVESGGGLVQAGGSLRLSCAASGRTFRSYTMGWYRQAPGKERELVARISSSGGRTYYADSVKGRFTISRDNAKNTVYLQMNSLKPEDTAVYYCAAAIVSYGRNDYWGQGTQVTVSS	high polyreactivity
QVQLVESGGGLVQAGGSLRLSCAASGRTFRTYDMGWYRQEPGKERELVAAITSRAGSTYYADSVKGRFTISRDNAKNTVFLQMNRLKPEDTAVYYCAKQYYYGWYWGEDYWGQGSQVTVSS	low polyreactivity
QVQLVESGGGLVQAGGSLRLSCAASGRTFRVYAMGGYRQAPGTERELVASISRRGAATYYADSVKGRFTISRDNAKNTVYRQMNSLKPEDTAVSDCAADRPYYSVSPNTEFEYWGQGTQVTVSS	high polyreactivity
